Source: paper PMC6116751, “An enzymatic system for decolorization of wastewater dyes using immobilized CueO laccase‐like multicopper oxidase on poly‐3‐hydroxybutyrate” (Microbial Biotechnology, 2018)

Substrate: COc1cccc(OC)c1O
Test: purified protein
Format: biochemical, Escherichia coli
Details: soluble enzyme, 20 mM Tris pH 6.5, 10 μM Cu2+, 30 °C

B1: BioF–CueO (CueO laccase-like multicopper oxidase fused to BioF tag) (Escherichia coli K-12) (protein)
chain: AERPTLPIPDLLTTDARNRIQLTIGAGQSTFGGKTATTWGYNGNLLGPAVKLQRGKAVTVDIYNQLTEETTLHWHGLEVPGEVDGGPQGIIPPGGKRSVTLNVDQPAATCWFHPHQHGKTGRQVAMGLAGLVVIEDDEILKLMLPKQWGIDDVPVIVQDKKFSADGQIDYQLDVMTAAVGWFGDTLLTNGAIYPQHAAPRGWLRLRLLNGCNARSLNFATSDNRPLYVIASDGGLLPEPVKVSELPVLMGERFEVLVEVNDNKPFDLVTLPVSQMGMAIAPFDKPHPVMRIQPIAISASGALPDTLSSLPALPSLEGLTVRKLQLSMDPMLDMMGMQMLMEKYGDQAMAGMDHSQMMGHMGHGNMNHMNHGGKFDFHHANKINGQAFDMNKPMFAAAKGQYERWVISGVGDMMLHPFHIHGTQFRILSENGKPPAAHRAGWKDTVKVEGNVSEVLVKFNHDAPKEHAYMAHCHLLEHEDTGMMLGFTV
notes: signal peptide absent (the primer starts at mature Ala-Glu-Arg-Pro-Thr); cueO amplified from pCueO (pASK-IBA3 derivative); plasmid pDB2 (pET-21d); expressed in E. coli BL21(DE3), butyl sepharose; tag kept
B1 was tested, and the Km was 400 ± 100 µM, the kcat was 4.3 ± 0.1 s⁻¹ and the kcat/Km was 10700 M⁻¹ s⁻¹.
